Source: PMC9792452

Target: T1, Interferon regulatory factor 3 (human (endogenous in A375)), Q14653
T1 chain: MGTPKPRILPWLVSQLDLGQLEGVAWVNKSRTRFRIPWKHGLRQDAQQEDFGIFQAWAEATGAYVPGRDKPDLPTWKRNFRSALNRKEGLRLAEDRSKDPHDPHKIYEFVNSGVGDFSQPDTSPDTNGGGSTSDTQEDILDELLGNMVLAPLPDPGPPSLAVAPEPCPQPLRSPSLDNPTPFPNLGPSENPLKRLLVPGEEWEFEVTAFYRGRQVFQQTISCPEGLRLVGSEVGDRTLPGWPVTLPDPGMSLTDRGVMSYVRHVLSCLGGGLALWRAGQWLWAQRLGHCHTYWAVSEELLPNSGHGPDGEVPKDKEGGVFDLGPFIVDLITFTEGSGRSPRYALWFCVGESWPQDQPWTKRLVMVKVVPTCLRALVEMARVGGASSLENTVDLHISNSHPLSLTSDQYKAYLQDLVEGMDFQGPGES
Test: cross-linking; covalent cross-link formed in cells (TG2-dependent), seen by Western blot of SDS-polyacrylamide gels under denaturing conditions; A375 cells treated with doxorubicin 5 μM for 6, 16 and 24 h; HeLa cells too
Conditions: remark: other sources report otherwise

B1: Interferon regulatory factor 3, Q14653 1-427 (natural protein)
chain: T1 chain
- stoichiometry N: 2
